The results in this text go back to US20090304721A1 (MEDLMMUNE, published 2009).

Assay [1] concerns the target T1, human EphA2 expressed on cells (human, UniProt P29317 24-976). In words: cell-based or functional assay.
Assay [2] deals with T1, human EphA2 expressed on cells. Description: immunofluorescence of HUVEC cells labeled with 50 ug/ml antibody at 4 C, 0 or 20 min at 37 C, fixed, permeabilized, AlexaFluor 488 goat anti-human IgG, DAPI mounting medium.
Assay [3] concerns the target T2, mouse EphA2 expressed on cells (mouse, UniProt Q03145 26-977).
T2 construct: whole, on cells
Description: flow cytometry on tumor cell lines, 1 ug antibody, PE anti-human IgG. On the procedure: (§1) The cells were then washed 2× with cold PBS and stained for 30 minutes at 4° C. with secondary Abs (Phycoerythin conjugated goat-a-human IgG, Biosource). Fluorescence analysis was performed using a FACS Calibur flow cytometer (BD Biosciences).
On the technique in general: Flow cytometry measures light scatter and fluorescence of single cells or particles in a stream.

Assay [4] has as its target T1, human EphA2 expressed on cells. Description: flow cytometry on twelve human cell lines, 1 ug primary antibody per 2x10^5 cells, PE goat anti-human IgG; y axis Mean Fl. Shift (%). The procedure:
as §1

T1 sequence (P29317 24-976): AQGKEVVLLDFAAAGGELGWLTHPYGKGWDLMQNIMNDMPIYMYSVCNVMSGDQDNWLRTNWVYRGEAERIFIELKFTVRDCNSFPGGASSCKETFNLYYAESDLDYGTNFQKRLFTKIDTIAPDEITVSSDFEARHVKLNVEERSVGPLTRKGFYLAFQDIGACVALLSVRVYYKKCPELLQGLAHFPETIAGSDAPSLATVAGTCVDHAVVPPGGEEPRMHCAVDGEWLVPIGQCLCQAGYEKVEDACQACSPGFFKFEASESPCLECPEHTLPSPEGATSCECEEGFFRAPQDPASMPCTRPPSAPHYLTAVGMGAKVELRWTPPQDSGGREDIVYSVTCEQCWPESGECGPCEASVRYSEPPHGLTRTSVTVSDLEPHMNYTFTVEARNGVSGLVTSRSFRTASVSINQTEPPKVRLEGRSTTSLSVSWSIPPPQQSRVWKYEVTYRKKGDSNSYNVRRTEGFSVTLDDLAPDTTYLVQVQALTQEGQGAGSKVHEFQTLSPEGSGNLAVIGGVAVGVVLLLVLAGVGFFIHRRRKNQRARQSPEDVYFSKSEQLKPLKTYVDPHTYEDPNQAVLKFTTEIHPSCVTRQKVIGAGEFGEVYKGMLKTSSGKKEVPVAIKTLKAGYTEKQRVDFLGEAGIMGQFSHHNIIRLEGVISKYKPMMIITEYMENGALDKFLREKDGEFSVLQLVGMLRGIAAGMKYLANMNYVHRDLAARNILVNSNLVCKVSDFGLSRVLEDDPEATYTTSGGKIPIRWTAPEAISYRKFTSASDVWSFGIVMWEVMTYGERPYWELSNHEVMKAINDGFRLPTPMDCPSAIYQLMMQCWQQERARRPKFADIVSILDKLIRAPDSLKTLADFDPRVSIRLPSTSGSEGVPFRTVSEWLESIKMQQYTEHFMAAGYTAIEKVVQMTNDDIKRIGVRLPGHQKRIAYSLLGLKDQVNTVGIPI
T2 sequence (Q03145 26-977): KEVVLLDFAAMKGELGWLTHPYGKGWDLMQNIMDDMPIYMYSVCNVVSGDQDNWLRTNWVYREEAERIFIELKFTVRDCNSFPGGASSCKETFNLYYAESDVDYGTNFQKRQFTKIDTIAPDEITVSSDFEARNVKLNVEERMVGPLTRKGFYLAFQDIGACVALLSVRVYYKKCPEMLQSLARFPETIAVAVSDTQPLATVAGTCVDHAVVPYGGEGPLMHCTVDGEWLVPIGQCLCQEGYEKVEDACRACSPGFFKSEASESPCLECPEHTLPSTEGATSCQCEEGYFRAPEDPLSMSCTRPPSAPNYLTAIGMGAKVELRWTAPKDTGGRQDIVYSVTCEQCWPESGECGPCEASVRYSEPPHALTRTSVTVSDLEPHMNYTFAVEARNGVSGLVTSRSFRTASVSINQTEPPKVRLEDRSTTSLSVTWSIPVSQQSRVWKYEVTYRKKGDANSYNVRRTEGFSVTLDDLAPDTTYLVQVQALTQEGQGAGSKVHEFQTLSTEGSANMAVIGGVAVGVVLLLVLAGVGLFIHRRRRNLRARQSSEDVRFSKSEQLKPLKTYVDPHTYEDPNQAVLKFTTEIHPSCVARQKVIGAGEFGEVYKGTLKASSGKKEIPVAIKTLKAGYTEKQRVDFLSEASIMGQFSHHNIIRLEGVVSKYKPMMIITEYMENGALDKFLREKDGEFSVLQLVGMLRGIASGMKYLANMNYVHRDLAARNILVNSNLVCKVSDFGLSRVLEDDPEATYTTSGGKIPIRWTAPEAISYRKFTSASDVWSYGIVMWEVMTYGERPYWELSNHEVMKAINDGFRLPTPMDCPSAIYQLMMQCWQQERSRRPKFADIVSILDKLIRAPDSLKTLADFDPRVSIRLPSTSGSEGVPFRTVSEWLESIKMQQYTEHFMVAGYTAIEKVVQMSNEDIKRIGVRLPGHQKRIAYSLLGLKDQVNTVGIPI

B1: 3F2mcMMAF (antibody, V domains shown)
VH: EVQLVESGGGVVRPGGSLRLSCAASGFTVSDYSMNWVRQAPGKGLEWIGFIRNKANAYTTEYSASVKGRFTISRDDSKNTLYLQMNSLKTEDTAVYYCTTYPRYHAMDSWGQGTMVTVSS
VL: AIQLTQSPSSLSASVGDRVTITCRASQSISNNLHWYLQKPGQSPQLLIYYGFQSISGVPSRFSGSGSGTDFTLTISSLQPEDFATYYCQQANSWPLTFGGGTKLEIK
modifications: antibody conjugated to monomethylauristatin F (MMAF) through a maleimidocaproyl-citrulline (mc) linker; attachment residues not stated
On to B1, for which the “IC50 (read off the curve), growth inhibition of MCF10-A cells” value in assay [1] was approximately 0.02 µM.

B2: anti-EphA2 antibody 3F2 (antibody, V domains shown)
VH: B1 VH
VL: B1 VL
notes: Humanized agonistic monoclonal antibody
Consider B2, for which, in assay [2], the binding result is “binds”.

B3: anti-EphA2 antibody 1H3 (antibody, V domains shown)
VH: EVQLLESGGGLVQPGGSLRLSCAASGFTFSMYAMRWVRQAPGKGLEWVSVIGPSGGWTPYADSVKGRFTISRDNSKNTLYLQMNSLRAEDTAVYYCARDRGIYGMDVWGQGTTVTVSS
VL: DIQMTQSPSFLSASVGDRVTITCRASQGISSYLAWYQQKPGKAPKLLIYAASTLQSGVPSRFSGSGSGTEFTLTISSLQPEDFATYYCLELNNYPFTFGLGTKVHIK
For B3, the binding result in assay [3] and in assay [4] was “binds” each time.
